Test results published in paper PMC3763551, “The tRNA recognition mechanism of the minimalist SPOUT methyltransferase, TrmL” (Nucleic Acids Research, 2013).

Columns and labels:
EcTrmL [1] = biological target: T1, EcTrmL (Escherichia coli, UniProt P0AGJ7, R129E); assay: isothermal titration calorimetry, one-site model; type: binding
T1 construct: gene trmL

EcTrmL [2] = biological target: T2, EcTrmL (Escherichia coli, UniProt P0AGJ7, K81E); assay: isothermal titration calorimetry, one-site model; type: binding
T2 construct: gene trmL

EcTrmL [3] = biological target: T3, EcTrmL (Escherichia coli, UniProt P0AGJ7, R46E); assay: isothermal titration calorimetry, one-site model; type: binding
T3 construct: gene trmL

EcTrmL [4] = biological target: T4, EcTrmL (Escherichia coli, UniProt P0AGJ7, R104E); assay: isothermal titration calorimetry, one-site model; type: binding
T4 construct: gene trmL

EcTrmL [5] = biological target: T5, EcTrmL (Escherichia coli, UniProt P0AGJ7, R45E); assay: isothermal titration calorimetry, one-site model; type: binding
T5 construct: gene trmL

EcTrmL [6] = biological target: T6, EcTrmL (Escherichia coli, UniProt P0AGJ7, R43E); assay: isothermal titration calorimetry, one-site model; type: binding
T6 construct: gene trmL

EcTrmL [7] = biological target: T7, EcTrmL (Escherichia coli, UniProt P0AGJ7, R20E); assay: isothermal titration calorimetry, one-site model; type: binding
T7 construct: gene trmL

EcTrmL [8] = biological target: T8, EcTrmL (Escherichia coli, UniProt P0AGJ7, R59E); assay: isothermal titration calorimetry, one-site model; type: binding
T8 construct: gene trmL

EcTrmL [9] = biological target: T9, EcTrmL (Escherichia coli, UniProt P0AGJ7, K42E); assay: isothermal titration calorimetry, one-site model; type: binding
T9 construct: gene trmL

[10] = biological target: the molecule itself; assay: SEC; analytical gel filtration, Superdex 75 (10/30), 20 mM Tris-HCl pH 7.5, 100 mM NaCl, 5 mM MgCl2, 5 mM beta-Me, 300 ul injected, 0.5 ml/min, against standard proteins
[11] = biological target: the molecule itself; assay: not stated; oligomeric state of the purified Glu single mutants in solution; the method is not named for this statement

Molecule | stoichiometry N [11] | also measured
Nc1ncnc2c1ncn2[C@@H]1O[C@H](CSCC[C@H](N)C(=O)O)[C@@H](O)[C@H]1O [SAH, S-adenosyl-homocysteine] | – | Kd (EcTrmL [1]): 19 µM; Kd (EcTrmL [2]): 30 µM; Kd (EcTrmL [3]): 29 µM; Kd (EcTrmL [4]): 33 µM; Kd (EcTrmL [5]): 29 µM; Kd (EcTrmL [6]): 39 µM; Kd (EcTrmL [7]): 45 µM; Kd (EcTrmL [8]): 27 µM; Kd (EcTrmL [9]): 20 µM
tRNA (Um34/Cm34) methyltransferase TrmL from E. coli, wild type (enzyme, UniProt P0AGJ7 1-157, looked up, TrmL, tRNA (Um34/Cm34) methyltransferase, E. coli; gene amplified from the genome of E. coli MT102; 157 amino acids as printed; also called EcTrmL; Yibk; source: E. coli BL21 (DE3), pET30b, purified (Ni-NTA, Superdex 75 gel filtration)) MLNIVLYEPEIPPNTGNIIRLCANTGFRLHIIEPMGFAWDDKRLRRAGLDYHEFTAVTRHHDYRAFLEAENPQRLFALTTKGTPAHSAVSYQDGDYLMFGPETRGLPASILDALPAEQKIRIPMVPDSRSMNLSNAVSVVVYEAWRQLGYPGAVLRD | – | stoichiometry N [10]: 2
EcTrmL-K81E (enzyme, E. coli, UniProt P0AGJ7 1-157, looked up, TrmL, E. coli, 157 amino acids, with K81E; source: E. coli BL21 (DE3), pET30b, purified (Ni-NTA, Superdex 75 gel filtration)) MLNIVLYEPEIPPNTGNIIRLCANTGFRLHIIEPMGFAWDDKRLRRAGLDYHEFTAVTRHHDYRAFLEAENPQRLFALTTEGTPAHSAVSYQDGDYLMFGPETRGLPASILDALPAEQKIRIPMVPDSRSMNLSNAVSVVVYEAWRQLGYPGAVLRD | 2 | –
EcTrmL-R129E (enzyme, E. coli, UniProt P0AGJ7 1-157, looked up, TrmL, E. coli, 157 amino acids, with R129E; source: E. coli BL21 (DE3), pET30b, purified (Ni-NTA, Superdex 75 gel filtration)) MLNIVLYEPEIPPNTGNIIRLCANTGFRLHIIEPMGFAWDDKRLRRAGLDYHEFTAVTRHHDYRAFLEAENPQRLFALTTKGTPAHSAVSYQDGDYLMFGPETRGLPASILDALPAEQKIRIPMVPDSESMNLSNAVSVVVYEAWRQLGYPGAVLRD | 2 | –
EcTrmL-K42E (enzyme, E. coli, UniProt P0AGJ7 1-157, looked up, TrmL, E. coli, 157 amino acids, with K42E; source: E. coli BL21 (DE3), pET30b, purified (Ni-NTA, Superdex 75 gel filtration)) MLNIVLYEPEIPPNTGNIIRLCANTGFRLHIIEPMGFAWDDERLRRAGLDYHEFTAVTRHHDYRAFLEAENPQRLFALTTKGTPAHSAVSYQDGDYLMFGPETRGLPASILDALPAEQKIRIPMVPDSRSMNLSNAVSVVVYEAWRQLGYPGAVLRD | 2 | –
EcTrmL-R46E (enzyme, E. coli, UniProt P0AGJ7 1-157, looked up, TrmL, E. coli, 157 amino acids, with R46E; source: E. coli BL21 (DE3), pET30b, purified (Ni-NTA, Superdex 75 gel filtration)) MLNIVLYEPEIPPNTGNIIRLCANTGFRLHIIEPMGFAWDDKRLREAGLDYHEFTAVTRHHDYRAFLEAENPQRLFALTTKGTPAHSAVSYQDGDYLMFGPETRGLPASILDALPAEQKIRIPMVPDSRSMNLSNAVSVVVYEAWRQLGYPGAVLRD | 2 | –
EcTrmL-R28E (enzyme, E. coli, UniProt P0AGJ7 1-157, looked up, TrmL, E. coli, 157 amino acids, with R28E; source: E. coli BL21 (DE3), pET30b, purified (Ni-NTA, Superdex 75 gel filtration)) MLNIVLYEPEIPPNTGNIIRLCANTGFELHIIEPMGFAWDDKRLRRAGLDYHEFTAVTRHHDYRAFLEAENPQRLFALTTKGTPAHSAVSYQDGDYLMFGPETRGLPASILDALPAEQKIRIPMVPDSRSMNLSNAVSVVVYEAWRQLGYPGAVLRD | 2 | –
EcTrmL-R43E (enzyme, E. coli, UniProt P0AGJ7 1-157, looked up, TrmL, E. coli, 157 amino acids, with R43E; source: E. coli BL21 (DE3), pET30b, purified (Ni-NTA, Superdex 75 gel filtration)) MLNIVLYEPEIPPNTGNIIRLCANTGFRLHIIEPMGFAWDDKELRRAGLDYHEFTAVTRHHDYRAFLEAENPQRLFALTTKGTPAHSAVSYQDGDYLMFGPETRGLPASILDALPAEQKIRIPMVPDSRSMNLSNAVSVVVYEAWRQLGYPGAVLRD | 2 | –
EcTrmL-R104E (enzyme, E. coli, UniProt P0AGJ7 1-157, looked up, TrmL, E. coli, 157 amino acids, with R104E; source: E. coli BL21 (DE3), pET30b, purified (Ni-NTA, Superdex 75 gel filtration)) MLNIVLYEPEIPPNTGNIIRLCANTGFRLHIIEPMGFAWDDKRLRRAGLDYHEFTAVTRHHDYRAFLEAENPQRLFALTTKGTPAHSAVSYQDGDYLMFGPETEGLPASILDALPAEQKIRIPMVPDSRSMNLSNAVSVVVYEAWRQLGYPGAVLRD | 2 | –
EcTrmL-R20E (enzyme, E. coli, UniProt P0AGJ7 1-157, looked up, TrmL, E. coli, 157 amino acids, with R20E; source: E. coli BL21 (DE3), pET30b, purified (Ni-NTA, Superdex 75 gel filtration)) MLNIVLYEPEIPPNTGNIIELCANTGFRLHIIEPMGFAWDDKRLRRAGLDYHEFTAVTRHHDYRAFLEAENPQRLFALTTKGTPAHSAVSYQDGDYLMFGPETRGLPASILDALPAEQKIRIPMVPDSRSMNLSNAVSVVVYEAWRQLGYPGAVLRD | 2 | –
EcTrmL-R64E (enzyme, E. coli, UniProt P0AGJ7 1-157, looked up, TrmL, E. coli, 157 amino acids, with R64E; source: E. coli BL21 (DE3), pET30b, purified (Ni-NTA, Superdex 75 gel filtration)) MLNIVLYEPEIPPNTGNIIRLCANTGFRLHIIEPMGFAWDDKRLRRAGLDYHEFTAVTRHHDYEAFLEAENPQRLFALTTKGTPAHSAVSYQDGDYLMFGPETRGLPASILDALPAEQKIRIPMVPDSRSMNLSNAVSVVVYEAWRQLGYPGAVLRD | 2 | –
EcTrmL-R74E (enzyme, E. coli, UniProt P0AGJ7 1-157, looked up, TrmL, E. coli, 157 amino acids, with R74E; source: E. coli BL21 (DE3), pET30b, purified (Ni-NTA, Superdex 75 gel filtration)) MLNIVLYEPEIPPNTGNIIRLCANTGFRLHIIEPMGFAWDDKRLRRAGLDYHEFTAVTRHHDYRAFLEAENPQELFALTTKGTPAHSAVSYQDGDYLMFGPETRGLPASILDALPAEQKIRIPMVPDSRSMNLSNAVSVVVYEAWRQLGYPGAVLRD | 2 | –
EcTrmL-R59E (enzyme, E. coli, UniProt P0AGJ7 1-157, looked up, TrmL, E. coli, 157 amino acids, with R59E; source: E. coli BL21 (DE3), pET30b, purified (Ni-NTA, Superdex 75 gel filtration)) MLNIVLYEPEIPPNTGNIIRLCANTGFRLHIIEPMGFAWDDKRLRRAGLDYHEFTAVTEHHDYRAFLEAENPQRLFALTTKGTPAHSAVSYQDGDYLMFGPETRGLPASILDALPAEQKIRIPMVPDSRSMNLSNAVSVVVYEAWRQLGYPGAVLRD | 2 | –
EcTrmL-R45E (enzyme, E. coli, UniProt P0AGJ7 1-157, looked up, TrmL, E. coli, 157 amino acids, with R45E; source: E. coli BL21 (DE3), pET30b, purified (Ni-NTA, Superdex 75 gel filtration)) MLNIVLYEPEIPPNTGNIIRLCANTGFRLHIIEPMGFAWDDKRLERAGLDYHEFTAVTRHHDYRAFLEAENPQRLFALTTKGTPAHSAVSYQDGDYLMFGPETRGLPASILDALPAEQKIRIPMVPDSRSMNLSNAVSVVVYEAWRQLGYPGAVLRD | 2 | –
